Experimental findings from patent publication US20040009905A1 (B M R A CORPORATION B V, published 2004) are described below.

This test addresses T1, NPY Y1 receptor (human, UniProt P25929 1-384).
T1 construct: whole, on cells; SK-N-MC cells are said to express the NPY Y1 receptor exclusively; also called SK-N-MC cells
T1 sequence (looked up): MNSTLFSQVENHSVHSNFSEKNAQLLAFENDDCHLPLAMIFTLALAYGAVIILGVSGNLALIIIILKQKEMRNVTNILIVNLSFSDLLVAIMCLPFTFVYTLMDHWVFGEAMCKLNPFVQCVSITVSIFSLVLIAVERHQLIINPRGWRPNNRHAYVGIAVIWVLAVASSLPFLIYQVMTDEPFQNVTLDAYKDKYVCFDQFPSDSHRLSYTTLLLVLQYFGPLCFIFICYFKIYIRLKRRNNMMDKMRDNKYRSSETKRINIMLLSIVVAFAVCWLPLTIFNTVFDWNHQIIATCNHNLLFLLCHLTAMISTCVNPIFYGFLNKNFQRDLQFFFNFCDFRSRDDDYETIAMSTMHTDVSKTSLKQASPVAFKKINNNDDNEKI
The test is described as follows: 125I-NPY displacement on SK-N-MC cells. The method, then: Various peptide dilutions were incubated with SK-N-MC cells that exclusively express Y1 receptors. Cells were then washed three times with buffer and lysed in 1% Nonidet P40 (Fluka, Neu-Ulm, Germany), 8M urea, 3M acetic acid. […] At the end of the incubation period, cells were washed and lysed. Bound radioactivity was determined by gamma counting. […] Each point represents the mean ± of at least 4 experiments.

B1: Neuropeptide Y (NPY) (peptide)
peptide: not shown
modifications: C-terminal tyrosine amidated
notes: also called native NPY; Human NPY 1-36
In the case of B1, the binding result was “binds”.
